PMC8960284 (Cell Reports Methods, 2022)

What was measured:
Assay in all cases: FRET or BRET
[1] = target: mutant Huntingtin exon1 (mHttex1) with a polyglutamine stretch of Q71, fused to mVenus-mCherry (Q71-VC)
[2] = target: mutant Huntingtin exon1 with 39 glutamines, fused to mVenus-mCherry (Q39-VC)
[3] = target: mutant Huntingtin exon1 with 54 glutamines, fused to mVenus-mCherry (Q54-VC)
[4] = target: wild-type FUS tagged with mVenus-mCherry at the C terminus (FUS-VC) (UniProt P35637)
FRET or BRET = target: the molecule itself

Molecule “mutant Huntingtin exon1 (mHttex1) with a polyglutamine stretch of Q71, fused to mVenus-mCherry (Q71-VC) (domain or fragment)” has an FRET/donor ratio in foci [1] of 1.3 to 1.4 and an FRET/donor ratio of the final foci [1] of 1.48.

“mutant Huntingtin exon1 with 39 glutamines, fused to mVenus-mCherry (Q39-VC) (domain or fragment)” showed an FRET/donor ratio of the final foci [2] of 1.6.

With “mutant Huntingtin exon1 with 54 glutamines, fused to mVenus-mCherry (Q54-VC) (domain or fragment)” the FRET/donor ratio of the final foci [3] was 1.53.

Molecule “wild-type FUS tagged with mVenus-mCherry at the C terminus (FUS-VC) (from UniProt P35637 1-526) (natural protein)” has an increase of FRET/donor ratio in foci over the dispersed state [4] of 0.06.

B1: FUS R521C tagged with mVenus-mCherry at the N terminus (VC-FUS_(R521C)) (natural protein)
chain: MASNDYTQQATQSYGAYPTQPGQGYSQQSSQPYGQQSYSGYSQSTDTSGYGQSSYSSYGQSQNTGYGTQSTPQGYGSTGGYGSSQSSQSSYGQQSSYPGYGQQPAPSSTSGSYGSSSQSSSYGQPQSGSYSQQPSYGGQQQSYGQQQSYNPPQGYGQQNQYNSSSGGGGGGGGGGNYGQDQSSMSSGGGSGGGYGNQDQSGGGGSGGYGQQDRGGRGRGGSGGGGGGGGGGYNRSSGGYEPRGRGGGRGGRGGMGGSDRGGFNKFGGPRDQGSRHDSEQDNSDNNTIFVQGLGENVTIESVADYFKQIGIIKTNKKTGQPMINLYTDRETGKLKGEATVSFDDPPSAKAAIDWFDGKEFSGNPIKVSFATRRADFNRGGGNGRGGRGRGGPMGRGGYGGGGSGGGGRGGFPSGGGGGGGQQRAGDWKCPNPTCENMNFSWRNECNQCKAPKPDGPGGGPGGSHMGGNYGDDRRGGRGGYDRGGYRGRGGDRGGFRGGRGGGDRGGFGPGKMDSRGEHRQDCRERPY
B1 was tested, and the “increase of FRET/donor ratio in foci over the dispersed state” value (FRET or BRET) was 0.15.
